Experimental data published in the nanobody polyreactivity screen of Harvey et al. (2022).

Test: yeast display, Sf9 membrane polyspecificity reagent, FACS + sequencing; frameworks hold sequencing errors
Procedure, shortened: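 Galactose-induced (36–48 hours) yeast carrying a synthetic nanobody display library were exposed to 10% biotinylated, detergent-solubilized Sf9 membrane reagent at 4 °C for 1 hour. FACS followed streptavidin microbead enrichment, using low and high (top ~1%) gates for expression (anti-HA) and reagent binding (streptavidin). Colony PCR, MiSeq 2 × 250 sequencing and CDR-length filtering followed. Labels for polyreactivity reflect the gate of origin.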

| Sequence | polyreactivity (PSR sort gate) |
| --- | --- |
| QVQLVESGRGLVQAGGSLLLSCAASGSTFDVYAMGWYRQAPGKERELVAAIRSSGGSTFYADSVKGRFTISRDNAKNIVYLQMNSLKPEDTAVYYCAARSFVVSGYNKYYEYGDWGQGTQVTVSS | low polyreactivity |
| QVQLVESGGGLVQAGRSLRLSCAASGSILGYYAMGWYRQAPGKERELVAITSGDSTYYADSVNGRFTISRDNAKNTVYLQMNSLKPEDTAVYYCAAEGQNEGYDYWGQGTKVTVSS | high polyreactivity |
| QVQLVESGAGLVMAGGSLRLSCAASGRTISIYAMGWYRQAPGKERQLVAAISQSSSITYYADSVKGRFTLSRDNANNTVYLQMISLKPEDTACYYCNAVVLRYQGSWLEYWGQGTQVTVSS | low polyreactivity |
| QVQLVESGGGLVQAGGSLRLSCAASGSILPVNAMGWYRQAPGKERELVAAITSSGSTTYADSVKGRFTISRDNAKNTVYLQMNSLKEEDTAVYYCAADVYWSYYLYYIYKGGYWGQGTQVTVSS | low polyreactivity |
| QVQLVESGGGLVQPGGSLRLSCAASGSIFPRNAMGWYRKAPGKERELVAGISYGGSTTYYADSVKGRFTISRDNAKNTVYLQMNSLKPEDTAVYYCAALQQYRRQTTYSSQLYYWGQGTQVTVSS | high polyreactivity |
| QVQLVESGGGLVQAGGSLRLSCAASGSIFWRNAMGWYRQAPGKERELVAAITSGGTTNYADSVKGRFTISRDNAKNTVYLQMISLIPEDTAVYYCATGASYLRRYDHPHSDVDYWGQGTQVTVSS | low polyreactivity |
| QVQLLESGGGLVQAGGSLRLSCAASGRIFNYNAMGWYRQAPGKERELVAAISWDGGSTYYADSVKGRFTISRDNAKNTVYLQMNSLKPEDTAVYYCAARGGSRRFQSQAYSLPRYDYWGQGTQVTVSS | high polyreactivity |
| QVQLVESGGGLVQAGGSLRLSCAASGSIFPYYAMGWYRQAPGKERELVAAISGSGGSTYYADSVKGRFTISRDNAKNTVYLQLNSLKPVDTAVYYCATADVYVYWYTSTDDYWGQGTQVTVSS | low polyreactivity |
| QVQLVESGGGLVQAGGSLRLSCAASGFTFSDHAMGWYRQAPGKERELVAAISRSRGNTHYADSVKGRFTISRDNAKNTVYLQMNSLKPEDTAVYYCNAVQGQGQYEYWGQATQVTVSS | high polyreactivity |
| QVQLVESGGGLVQAGGSLRLSCAASGYTFHGYAMGWYRQAPGKERELVAVITQRGGSTYYADSVKGRFTISRDNAKNTVYLQMNSLKPEDTAVYYCAARYAGPSPTDTGHDYWGQGTQVTVSS | low polyreactivity |
| QVQLVESGGGLVQAGGSLRLSCAASGFIFGYYAMGWYRQAPGKERELVAAINGSGGSTYYADSVKGRFTISRDNAKNTVYLQMNSLKPEDTAVYYCNADVVPQYYSWGQGTQVTVSS | low polyreactivity |
| QVQLVESGGGLVQAGGSLRLSCAASGRTFRRNAMGSYRQAPGKERELVATITGGGTNYADSVKGRFTISRDNAKNTVYLQMNSLKPEDTAVYYCAVGTRFYVPRRFDYWGQGTQVTVSS | high polyreactivity |
| QVQLVESGGGLVQAGGSLRLSCAASGSTFGVNAMGWYRQAPGKERELVAAISSSGSSTYADSVKGRFTISRDNAKNTVYLQMNSLKPEDTAVYYCAAQSPAYYTKSYWGQGTQVTVSS | low polyreactivity |
| QVQLVESGGGLVQAGGSLRLSCAASGSIFDFYAMGWYRQAPGKVRELVAAITSGSNTYYADSVKGRFTISRDNAKNTVYLQMNSLKPEDTAVYYCAARRRIYRSMGYWGQGTQVTVSS | low polyreactivity |
| QDQLVESGGGLVQAGGSLRLSCAASGSIFAWNAMGWYRQAPGKERELVAVITSGGSTNYADSVKGRFTISRDNAKNTVYLQMNSLKPEDTAVYYCAARSWVYSVIGDYWGQVTQVTVSS | low polyreactivity |
| QVLLQESVGGLVQAGGSLRLGCAASGTISPAYYMGRYQQEPGKVRQFVAAITYGTNTYYADSVKGRFTISRDNAKNTVYLQMNSLKPEDTAVYYCSATAGYNGAHDYWGQGTQVTVSS | low polyreactivity |
| QVQLVESGGGLVQAGGSLRLSCAASGRTFYDYARGWYRQGPGKERELVAAITSGGSTNYADSVKGRFTISRDNAKNTVYLQMNSLKPEDTAVYYCAADDCYVWGFDMNYWGQGTQVTVSS | high polyreactivity |
| QVQLVESGGGLVQAGGSLRLSCAASGFIFRDNAKGWYRQAPGKERELVAAISSGGTTKYADSVKGRFTISRDNAKNTVYLQMNSLKPEDTAVYYCAKGYAARIWRIYSRLYYWGQGTQVTVSS | high polyreactivity |
| QVQLVESGGGLVQAGGSLRLSCAASGRIFPYYAMGWYRQAPGKERELVAAITRGGSRTYYADSVKGRFTISRDNAKNTVYLQMNSLKPEDTAVSYCARLDGFSASDHDYGGQGTQVTVSS | high polyreactivity |
| QVQLVESGGGLVQAGGSLRLSCAASGITFGNYAMGWYRQAPGKERELVAAITGSGGRTYYADSVKGRFTISRDNAKNTVYLQMNSLKPEDTAVYYCNRRQYGRKKQYDYWGQGTQVTVSS | high polyreactivity |
| QVQLVESGGGLVQAGGSLRLSCAASGSIFGSYAMGWYRQAPGKERELVADISRRGSSTYYADSVKGRFTISRDNAKNTVYLQMNSLKPEDTAVYYCNKVFARSLSSRYQAYDYWGQGTQVNVSS | high polyreactivity |
